{"source": "patent US20070060521A1", "target": "IL-6 receptor on U266 human myeloma cells (human) (UniProt P08887)", "sequence (P08887 20-468)": "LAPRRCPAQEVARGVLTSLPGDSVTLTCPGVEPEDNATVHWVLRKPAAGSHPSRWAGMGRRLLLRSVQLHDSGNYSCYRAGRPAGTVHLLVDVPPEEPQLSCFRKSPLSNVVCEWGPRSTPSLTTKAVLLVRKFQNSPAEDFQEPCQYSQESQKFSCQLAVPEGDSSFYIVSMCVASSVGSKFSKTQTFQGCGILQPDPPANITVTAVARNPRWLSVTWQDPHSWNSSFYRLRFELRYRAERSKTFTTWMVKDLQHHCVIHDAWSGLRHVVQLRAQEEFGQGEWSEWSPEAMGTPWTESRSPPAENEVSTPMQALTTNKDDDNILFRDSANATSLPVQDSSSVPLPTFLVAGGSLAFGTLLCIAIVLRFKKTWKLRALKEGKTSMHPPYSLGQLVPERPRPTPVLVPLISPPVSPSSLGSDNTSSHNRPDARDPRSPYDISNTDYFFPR", "test": "cell-based or functional assay"}
{"substance": "Sant7, IL-6 superantagonist (ligand)", "values": [{"measurement": "reduction of constitutive STAT3 DNA-binding (EMSA) in U266 cells", "value": 70, "unit": "%"}]}
